Test results as given in US20260234660A1 (Regeneron, published 2026).
Where two headings read alike, the source gives them in different places. Blank lines part the entries; values can stand above or below the binder they belong to.

Key:
[1] = biological target: T1, human CACNG1, cell surface-expressed (human, UniProt Q06432 1-222); assay: cell-based or functional assay
[2] = biological target: T1, human CACNG1, cell surface-expressed; assay: cell-based or functional assay; remark: listed apart in the source
[3] = biological target: T1, human CACNG1, cell surface-expressed; assay: cell-based or functional assay; remark: listed apart in the source
[4] = biological target: T2, nanodisc embedded human CACNG1 expressed with a C-terminal PADRE-Flag-His tag (human, UniProt Q06432 1-222); assay: SPR (Biacore T200), 25 C, anti-His-captured human CACNG1 nanodisc, antibody as analyte
T2 construct: Membrane protein (gamma-1 subunit of the skeletal muscle L-type calcium channel) in a nanodisc; also called human CACNG1 nanodisc; CACNG1 nanodisc; not shown: C-terminal PADRE-Flag-His tag
T2 sequence (Q06432 whole entry): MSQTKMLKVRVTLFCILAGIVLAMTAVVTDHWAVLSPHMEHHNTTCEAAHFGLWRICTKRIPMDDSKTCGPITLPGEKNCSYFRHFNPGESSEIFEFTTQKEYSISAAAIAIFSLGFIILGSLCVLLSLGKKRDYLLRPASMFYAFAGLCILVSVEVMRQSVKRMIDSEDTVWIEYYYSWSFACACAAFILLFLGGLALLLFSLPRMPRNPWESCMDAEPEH
Procedure: Equilibrium dissociation constants (KD values) for nanodisc embedded human CACNG1 expressed with a C-terminal PADRE-Flag-His tag (human CACNG1 nanodisc) binding to purified anti-hCACNG1 antibodies were determined using a real-time surface plasmon resonance biosensor technology with a Biacore T200 instrument. The CM5 Biacore sensor surface was derivatized by amine coupling with a monoclonal mouse anti-His antibody (Cytiva; Marlborough, MA). All Biacore binding studies were performed in a buffer composed of 0.01M HEPES, 0.15M NaCl, 1 mM CaCl₂), 0.5 mM MgCl₂, pH 7.4 (HBS-N++ running buffer). Different concentrations of anti-hCACNG1 antibodies (ranging from 300 nM to 12 nM in 5-fold serial dilutions) prepared in HBS-N++ running buffer were injected over the captured human CACNG1 nanodisc at a flow rate of 30 μL/minute. Antibody association was monitored for 2 minutes while dissociation was monitored in HBS-N++ running buffer for 5 minutes. At the end of each cycle, the human CACNG1 nanodisc capture surface was regenerated using three 10 second injections of 10 mM Gly pH1.5. All binding kinetics experiments were performed at 25° C.

[5] = biological target: T3, mouse CACNG1 on myofibers of wildtype mice (mouse, UniProt O70578 1-223); assay: immunofluorescence on live single myofibers ex vivo (wildtype mice), fluorescent secondary antibody, confocal imaging
T3 construct: whole, on cells; Target inferred from the cells: the wildtype myofibers carry mouse CACNG1, which the CACNG1^Hu/Hu mice have replaced by human CACNG1; also called wildtype (WT) myofibers
T3 sequence (looked up): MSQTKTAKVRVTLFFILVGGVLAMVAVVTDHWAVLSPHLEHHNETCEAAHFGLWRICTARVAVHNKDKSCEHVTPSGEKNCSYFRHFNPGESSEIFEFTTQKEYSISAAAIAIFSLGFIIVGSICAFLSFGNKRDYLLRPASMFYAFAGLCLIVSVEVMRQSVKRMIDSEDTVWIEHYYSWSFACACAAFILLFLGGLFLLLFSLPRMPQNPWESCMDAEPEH
Procedure: Single myofibers were isolated from either wildtype mice, mice that were homozygous for the deletion of CACNG1 (referred to as CACNG1 knockout mice), or mice that were homozygous for the expression of human CACNG1 in place of mouse CACNG1 (referred to as CACNG1^{Hu/Hu}). The gastrocnemius muscle was removed, collagenase digested, and single myofibers were isolated, washed, and incubated overnight at 37° C. at 5% C02, in DMEM+10% horse serum. […] Myofibers were then washed twice in DMEM+10% horse serum, and subsequently incubated with 10 ug/mL of fluorescent-conjugated secondary antibodies for 30 minutes, washed twice in DMEM+10% horse serum, and then fixed with 4% paraformaldehyde (PFA) for 15 minutes at room temperature. Single fibers were then washed twice with PBS, stained with Hoechst for 5 minutes, washed once more with PBS, then transferred to microscope slides, coverslipped, and imaged using a Zeiss LSM 710 confocal microscope.

[6] = biological target: T1, human CACNG1, cell surface-expressed; assay: cell-based or functional assay; remark: listed apart in the source
[7] = biological target: T1, human CACNG1, cell surface-expressed; assay: cell-based or functional assay; remark: listed apart in the source
[8] = biological target: T1, human CACNG1, cell surface-expressed; assay: cell-based or functional assay; remark: listed apart in the source

T1 sequence (Q06432 whole entry): as the sequence (Q06432 whole entry) above

EC50; androgen receptor luciferase reporter (RLU), hCACNG1.AR.Luc LNCaP cells, 24 hours [1]: 6.75 nM
EC50; androgen receptor luciferase reporter (RLU), hCACNG1.AR.Luc LNCaP cells, 48 hours [2]: 6.04 nM
EC50; androgen receptor luciferase reporter (RLU), hCACNG1.AR.Luc LNCaP cells, 72 hours [3]: 7.36 nM
B1: REGN14647-M3004 (antibody, V domains shown)
VH: QVQLVESGGGVVQPGRSLRLSCTASGITFRNYGMHWVRQAPGKGLEWVAVMWYDGSNKYYADSVKGRFTISGDNSKVYLQMNSLRAEDTAVYYCARRGTIRTAAPFDYWGQGTLVTVSS
VL: not shown
modifications: N180Q in the constant region; linker-payload M3004 (VC-PAB linker, DHT), DAR ~4

mAb Bound at 300 nM (RU) [4]: 25 RU
B2: H2aM31929N/REGN10728 (antibody, human IgG4 S228P, kappa, V domains shown)
VH: B1 VH
VL: not shown
notes: also called antibody designation 1

mAb Bound at 300 nM (RU) [4]: 16 RU
B3: H2aM31944N (antibody, mouse IgG2a, kappa, V domains shown)
VH: QVQLVESGGGVVQPGRSLRLSCEASGITFRNYGMHWVRQAPGKGLEWVAVMWYDGSNKYYADSVKGRFTISRDNSKNTVYLQMNSLRAEDTAVYYCARRGHIATAAPFDYWGQGTLVTVSS
VL: DIQMTQSPSSLSASVGDRVTISCRASQSISSYLNWYQQKPGKAPKVLMYAASSLQSGVPSRFSGSGSGTDFTLTISSLQPEDFATYYCQQSYSTPPITFGQGTRLEIKR
notes: also called antibody designation 6

mAb Bound at 300 nM (RU) [4]: 19 RU
B4: H2aM31941N (antibody, V domains shown)
VH: QVQLVQSGAEVKKPGASVKVSCKASGYAFTTYGITWVRQAPGQGLEWMGWISAYNGNTNYAEKVQGRFTMTTDTSTNTAYMELRSLRSDDTAVYFCARKGHYGSGTYYNPFGFDFWGQGTMVTVSS
VL: EIMLMQSPGTLSLSPGERATLSCRASQSVSSSYLAWYQQKPGQAPRLLIYGASSRATDIPDRFSGSGSGTDFTLTISRLEPEDFAVYFCQQYYGSPWTFGQGTKVEIK
notes: also called antibody designation 8

binding result [5]: no binding (tested: 100 nM)
B5: H1M31941N (antibody, mouse IgG1, kappa, V domains shown)
VH: B4 VH
VL: EIMLMQSPGTLSLSPGERATLSCRASQSVSSSYLAWYQQKPGQAPRLLIYGASSRATDIPDRFSGSGSGTDFTLTISRLEPEDFAVYFCQQYYGSPWTFGQGTKVEIKR
notes: as for B4

EC50; androgen receptor luciferase reporter (RLU), hCACNG1.AR.Luc LNCaP cells, 24 hours [1]: 214 nM
EC50; androgen receptor luciferase reporter (RLU), hCACNG1.AR.Luc LNCaP cells, 48 hours [2]: 213 nM
EC50; androgen receptor luciferase reporter (RLU), hCACNG1.AR.Luc LNCaP cells, 72 hours [3]: 185 nM
B6: REGN14573-M3004 (antibody, V domains shown)
VH: EVQLVESGGNLVQPGGSLRLSCAASGFTFTSHAMNWVRQAPGKGLEWVSVITGRGFDTHYADSVKGRFTISRDISKNTLYLQMNSLRAEDTAVYYCAKGLYDSGNYYIDYWGQGTLVTVSS
VL: QSVLTQPPSVSAAPGQKVTISCSGSSSNIGNNYVSWYQQLPGTAPKLLIYDNNKRPSGIPDRFSGSKSGTSATLGITGLQTGDEADYYCGTWDLSLSFNWVFGGGTKLTVLG
modifications: N180Q in the constant region; linker-payload M3004 (VC-PAB linker, DHT), DAR ~4

mAb Bound at 300 nM (RU) [4]: 53 RU
B7: REGN10713 (antibody, human IgG4 S228P, lambda, V domains shown)
VH: B6 VH
VL: B6 VL
notes: also called antibody designation 11

mAb Bound at 300 nM (RU) [4]: 31 RU
B8: REGN10716 (antibody, human IgG4 S228P, kappa, V domains shown)
VH: QVQLQESGPGLVKPSETLSLTCTVSGDSINNYYWTWLRQPPGKGLEWIGYIYYSGSANYNPSLKSRVTISVDTSKNQFSLKLNSVTAADTAVYYCARGAVKYFRHWGQGTLVTVSS
VL: EIVLTQSPGTLSLSPGERATLSCRASQTINHNNLAWYQQRPGQAPRLLIYGASNRATAIPDRFSGSGSGTDFTLTISRLEPEDFEVYSCQQYGSLPLTFGGGTKVEIKR
notes: also called antibody designation 4

EC50; androgen receptor luciferase reporter (RLU), hCACNG1.AR.Luc LNCaP cells, 24 hours [6]: 11.2 nM
EC50; androgen receptor luciferase reporter (RLU), hCACNG1.AR.Luc LNCaP cells, 48 hours [7]: 11.9 nM
EC50; androgen receptor luciferase reporter (RLU), hCACNG1.AR.Luc LNCaP cells, 72 hours [8]: 10.3 nM
B9: REGN14572-M3004 (antibody, V domains shown)
VH: QVQLVESGGGVVQPGRSLRLSCAASGFTFSTYGMHWVRQAPGKGLEWVAVIWHDGSDKYYVDSVKGRFSIARDNSKNTLYLQMNSLRVEDTGIYYCARRGIRGTVFDHWGLGTLVTVSS
VL: DIQMTQSPSTLSASVGDRVTLTCRASQSISNKLAWYQQKPGKAPNLLIYKASNLESGVPSRFSGSGSGTEFTLTISSLQPDDFATYYCQQYNSYSWTFGQGTKVEIKR

mAb Bound at 300 nM (RU) [4]: 7 RU
B10: REGN10717 (antibody, human IgG4 S228P, kappa, V domains shown)
VH: B9 VH
VL: B9 VL
notes: also called antibody designation 3

mAb Bound at 300 nM (RU) [4]: 23 RU
B11: REGN7660 (antibody, human IgG4 S228P, kappa, V domains shown)
VH: EVQLVESGGGLVQPGGSLKLSCTASGLTLSDSAMHWVRQASGKGLEWVGRIRNKANRYATEYAASVKGRFTISRDDSKNTAYLQMNSLKTEDTAVYYCTRNWKIFLFDYWGQGTLVTVSS
VL: EIVLTQSPGTLTLSPGERATLSCRASQSVGSKYLAWFQQKRGQAPRLLIYGASSRTSGIPDRISGSGSGTDFTLTISRLEPEDFAVYYCQQYGSSPWTFGQGTKVEIKR
notes: also called antibody designation 9

mAb Bound at 300 nM (RU) [4]: 9 RU
B12: REGN10783 (antibody, human IgG4 S228P, kappa, V domains shown)
VH: QVQLVESGGGVVQPGTSLRLSCAASGFTFSSYGMHWVRQAPGKGLEWVAVIWIDGSNKYYADSVKGRFTISRDNSKNTLYLQMNSLRAEDTAVYYCARRGGIVVAAPFDYWGQGTLVTVSS
VL: not shown
notes: also called antibody designation 5

EC50; androgen receptor luciferase reporter (RLU), hCACNG1.AR.Luc LNCaP cells, 24 hours [6]: 2 nM
EC50; androgen receptor luciferase reporter (RLU), hCACNG1.AR.Luc LNCaP cells, 48 hours [7]: 5.83 nM
EC50; androgen receptor luciferase reporter (RLU), hCACNG1.AR.Luc LNCaP cells, 72 hours [8]: 6.65 nM
B13: REGN14570-M3004 (antibody, V domains shown)
VH: QVQLQQWGAGLLKPSATLSRTCAVYGGSFSGYYWNWIRQSPGKGLEWIGEILHSGRTNYNPSLKSRVTISVDTSKNQFSLKLTSVTAADTAVYYCAGRIAARHGWFDPWGQGTLVTVSS
VL: DIQMTQSPSSVSTSVGDRVTISCRASQDIRKWLAWYQQKPGKAPKLLIYATSSLQSGVPSRFSGSGSGTDFTLTISSLQPEDFATYFCQQANSFPFTFGQGTKLEIKR

mAb Bound at 300 nM (RU) [4]: 31 RU
B14: REGN10715 (antibody, human IgG4 S228P, kappa, V domains shown)
VH: B13 VH
VL: B13 VL
notes: also called antibody designation 2

mAb Bound at 300 nM (RU) [4]: 22 RU
B15: REGN9909 (antibody, mouse IgG2a, kappa, V domains shown)
VH: EVQLLESGGGLVQPGGSLRLSCAASGFTFNNYGMSWVRQGPGKGLEWVSSISGSGGTTFYADSVKGRFTISRDNSKNTLYLQMNSLRAEDTAVYYCGKGGYCSSSGCRHYGMDVWGQGTTVTVSS
VL: QSVLTQPPSASGTPGQRVTISCSGSSSNIGNNYIYWYQRLPGTTPKLLIYRNNQRPSGVPDRFSGSKSGTSASLAISGLRSEDEADYYCAAWDDTLSGYVFGTGTKVTVLR
notes: also called antibody designation 10
